In patent publication US20210113690A1 (BERLIN CHEMIE, published 2021):

Assays:
LY75 761-780 = biological target: T1, LY75 761-780 (human); assay: peptide microarray; region identified by signal above the cut off
T1 construct: Region put together from overlapping 8mers on the array; also called Region 3 (aa761-780)
T1 peptide: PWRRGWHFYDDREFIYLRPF
Method: (§1) The peptide microarray analysis was performed by LC Sciences, Houston Tex., in brief the method comprised the following steps: —Contiguous 8mer peptides of LY75 protein having […] spanning residues 216 to 1666 of the full length LY75 protein were synthesized and immobilized on a microarray chip. The chip comprised three panels such that the experiment was performed in triplicate. […] The binding assay was performed under the following conditions:—
(§2) The microarray comprising the contiguous peptides in triplicate was washed with 1 mL of binding buffer at 4° C. for 20 min. […] The array was again washed with 0.5 mL of washing buffer at 4° C. for 30 min then incubated with 25 ng/mL anti-human IgG Alexa 647 conjugate in binding buffer (pH 7.0) at 4° C. for 1 hr. The array was again washed with 0.5 mL of washing buffer at 4° C. for 30 min.

LY75 1077-1093 = biological target: T2, LY75 1077-1093 (human); assay: as above
T2 construct: Region put together from overlapping 8mers on the array
T2 peptide: FTSCSERHFVSLCQKYS
Method: as §1, §2

B1: LY75_A1 monoclonal antibody (antibody, human IgG1, kappa, V domains shown)
VH: EVQLVESGGGLVKPGGSLRLSCAASGFTYSNAWMSWVRQAPGKGLEWVGRIKSKTDGGTTDYAAPVQGRFTISRDDSKNTLYLQMNSLKTEDTAVYYCTIFGVVSFDYWGQGTLVTVSS
VL: DVQMTQSPSSLSASVGDRVTITCRASQSISDYLSWYQQRPGKAPNLLIYAASNLKTGVPSRFSGSGSGTDFTLTISTLQPEDFATYYCQQSYRSPWTFGQGTKVEIKR
notes: also called LY75A1 antibody; antibody LY75_A1
B1: binds (LY75 761-780); binds (LY75 1077-1093).
